Reference: patent US20080242590A1, “New Method 706” (ASTRAZENECA AB, priority 2007, published 2008)

How the values were obtained:
[1] = target: amyloid β peptide 1-40 (human) (human); assay: cell-based or functional assay
[2] = target: amyloid β peptide 1-42 (human) (human); assay: cell-based or functional assay
amyloid β peptide 1-42 (human) (human), sequence (peptide, as listed by the source): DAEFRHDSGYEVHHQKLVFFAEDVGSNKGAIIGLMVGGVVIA

amyloid β peptide 1-40 (human) (human), sequence (peptide, as listed by the source): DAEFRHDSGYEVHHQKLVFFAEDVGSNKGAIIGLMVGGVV

B1: Fc-Neprilysin fusion protein (human IgG2 hinge and Fc domain fused N-terminally to the extracellular domain of human Neprilysin) (Fc fusion)
chain: ERKCCVECPPCPAPPVAGPSVFLFPPKPKDTLMISRTPEVTCVVVDVSHEDPEVQFNWYVDGVEVHNAKTKPREEQFNSTFRVVSVLTVVHQDWLNGKEYKCKVSNKGLPAPIEKTISKTKGQPREPQVYTLPPSREEMTKNQVSLTCLVKGFYPSDIAVEWESNGQPENNYKTTPPMLDSDGSFFLYSKLTVDKSRWQQGNVFSCSVMHEALHNHYTQKSLSLSPGKYDDGICKSSDCIKSAARLIQNMDATTEPCTDFFKYACGGWLKRNVIPETSSRYGNFDILRDELEVVLKDVLQEPKTEDIVAVQKAKALYRSCINESAIDSRGGEPLLKLLPDIYGWPVATENWEQKYGASWTAEKAIAQLNSKYGKKVLINLFVGTDDKNSVNHVIHIDQPRLGLPSRDYYECTGIYKEACTAYVDFMISVARLIRQEERLPIDENQLALEMNKVMELEKEIANATAKPEDRNDPMLLYNKMTLAQIQNNFSLEINGKPFSWLNFTNEIMSTVNISITNEEDVVVYAPEYLTKLKPILTKYSARDLQNLMSWRFIMDLVSSLSRTYKESRNAFRKALYGTTSETATWRRCANYVNGNMENAVGRLYVEAAFAGESKHVVEDLIAQIREVFIQTLDDLTWMDAETKKRAEEKALAIKERIGYPDDIVSNDNKLNNEYLELNYKEDEYFENIIQNLKFSQSKQLKKLREKVDKDEWISGAAVVNAFYSSGRNQIVFPAGILQPPFFSAQQSNSLNYGGIGMVIGHEITHGFDDNGRNFNKDGDLVDWWTQQSASNFKEQSQCMVYQYGNFSWDLAGGQHLNGINTLGENIADNGGLGQAYRAYQNYIKKNGEEKLLPGLDLNHKQLFFLNFAQVWCGTYRPEYAVNSIKTDVHSPGNFRIIGTLQNSAEFSEAFHCRKNSYMNPEKKCRVW
% degradation of amyloid β 1-40 in APPswe-tg mouse plasma at highest concentration (100 µg/ml), 1 h room temperature, ELISA [1]: 71%
% degradation of amyloid β 1-40 in human plasma at highest concentration (100 µg/ml), 1 h room temperature, ELISA [1]: 66%
Amyloid β 1-40 peptide degradation (remaining peptide by Gyrolab immunoassay), batch 1, 2.4 µg/ml, 300 nM peptide, 2.5 h at 37 °C in buffer [1]: 50%
Amyloid β 1-40 peptide degradation (remaining peptide by Gyrolab immunoassay), batch 2, 2.4 µg/ml, 300 nM peptide, 2.5 h at 37 °C in buffer [1]: 42%
EC50 of degradation of Aβ 1-40 in APPswe-tg mouse plasma [1]: 470 nM
EC50 of degradation of Aβ 1-40 in human plasma [1]: 580 nM
% degradation of Aβ 1-42 in APPswe-tg mouse plasma at highest concentration (100 µg/ml), 1 h room temperature, ELISA [2]: 34%
% degradation of Aβ 1-42 in human plasma at highest concentration (100 µg/ml), 1 h room temperature, ELISA [2]: 28%
EC50 of degradation of Aβ 1-42 in APPswe-tg mouse plasma [2]: 1300 nM
EC50 of degradation of Aβ 1-42 in human plasma [2]: 250 nM
